This data set deals with Bacillus subtilis DB104 (SP-AmyQ fusion secretion). Kind of data set: AmyQ secretion efficiency, weighted average sort bin (1 = best secretion, 10 = worst) (bin number (weighted average, 1-10)); higher = lower secretion efficiency. The method, boiled down:
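With fluorescein-starch as substrate, a B. subtilis DB104 library expressing mature AmyQ fused to designed signal peptides (integrated at amyE) was encapsulated at about 0.3 cells per ~65 nL alginate bead. After about 13 h at room temperature, beads were nile red stained, and occupied beads were sorted by large-particle flow cytometry into 10 equally populated bins by green/red fluorescence ratio. Illumina sequencing of the amplicons in each bin was used to calculate the secretion score, which is the read-frequency-weighted average bin number, normalised to beads per bin, with low-abundance sequences left out.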

Values joined by “and” are separate entries in the source; they are usually repeats but may differ in a detail not shown here. Identical values can stand only once.

Turning to MMIKQCVICLSLLVFGTTASGTAHAEET, the AmyQ secretion efficiency is 2.45.
For MGFVSSSIIALVTILMLSVTSLFALQPSAKAAEH, the AmyQ secretion efficiency was determined as 2.48.
The figure for MKKWMITIAMSTYTYYTLFVFISPLKSHKT is 5.78; for MKLSVKIAGVLTVAAAAMTAKMYATVKGN it is 6.87.
As for MNLFLIAPMLLSAASLAFFAMSGSAQAAAY, the AmyQ secretion efficiency came to 5.75.
With MFGKLLLATSALTFSLSLVLPLDGHAKAQEV, the AmyQ secretion efficiency amounted to 3.02.
Next, MIAYFGKCLLLVTIMFLGVLFGMSQANHG: 4.69.
With “MLKKIALTLCPAIVGSLLFFTAPAPVAVASFAAAASAHVS”, the AmyQ secretion efficiency was 5.09.
The figure for MKKKQVMLALTAAAGLGLTALHSAPAKKAAPL is 5.87; for MKTLRNMLSTLCVLMILSGVIFFGLKIDAKDI it is 6.22; for MLKKKWMVGLLAGCLAAGGFSYNAFETEN it is 6.72.
In turn, MKKLAAGLTASAIVGTTLVVTPAEAATI returned an AmyQ secretion efficiency of 2.27.
MKRQKQKASLVLFAVVFVFAVKGAPAKAETH gave an AmyQ secretion efficiency of 2.05.
MKSKGSIMACLILFSFTITTFINTETISCFSN: the AmyQ secretion efficiency worked out at 7.73.
With MKKQSMALVILGALGTSYISADSS, the AmyQ secretion efficiency was determined as 5.2.
In turn, MRIFKKAVFVIMISFLIATVNVNTCHAAID registered an AmyQ secretion efficiency of 3.94.
As to MRNLTKTSLLLAGLCTAAIQMVFVTHASAEES, the AmyQ secretion efficiency was 3.32 and 3.1.
Next, MRKTIFAFLTGLMMFGTITASPSTASASPD: 2.04; MKSCKQYKRCQYSSILLLIPSVSFAADS: 7.62.
Next, MKLAKRVSALTPSTTLAITCKAKEL: 7.57; MKKRLIAPMLLSAASLAFFAMSGSAQEAAY: 6.78; MKVLLSALLLLLFAFEPSHSGKKL: 6.88.
Take MFKKHSTISLLIIFLLASAVLAKPIEAHTV: the AmyQ secretion efficiency was 1.86.
For the sequence MRRRTDYKKQVVGILLSLAFVLFVFSFSERHE, the AmyQ secretion efficiency was 6.74.
Next, MKKWMAGLFLAAAVLLCLMVPQQIQGASS: 4.93 and 4.6 and 5.33; MKKRLIGFLVLVPALIMSGITLIECNKK: 6.67; MKKTIMSFVAVAALSTTAFGAHASFKEI: 5.37.
Next, MPKKCSVCLWILVLLLSCLSGKSAYAATS: 2.99.
Next, MKRTWNRQRKVCLTALLSVLLVAGSVPFHAEAKKP: 2.09.
In turn, MKKRITYSLLALLAVVAFAFFSIAGAKAAEA came in with an AmyQ secretion efficiency of 4.27.
For the sequence MKKCKRKKKKIALILSLSTNAFAKNT, the AmyQ secretion efficiency came out at 6.9.
The figure for MKRIRIPMTLALGAALTIAPLSFASTEEN is 8.25; for MPYLKRVLLLLVTGLFMSLFAVTATASTQTG it is 1.44.
Sequence MPIKKKVMMCLAVTLVFGSMRKRRRKNSGGFKE displayed an AmyQ secretion efficiency of 8.69.
Turning to MLCVMMLLFSAIAAFTVTAQAKDQ, the AmyQ secretion efficiency is 6.83.
The figure for MRKTRRKKKRGLMMFGTITAASASPD is 5.82; for MTMLRKIIGWILLLCIIPLFAFTVIQSGKEV it is 6.03.
The sequence MKKRKRRNFKRFIAAFLVLALMISLVPADILAKST gave an AmyQ secretion efficiency of 1.87.
Next, MRGKSAVLLSLIMLIAGFLISFLFQM: 7.41; MKKKQVMLALTAAAGLGLTALHSAPAIKAAPL: 4.18.
Next, MKSKGSIMACLILFSFTITTFINTETISNFSN: 7.44; MTMKLKWLSFLLGFIILLFLFKYQFSNNDS: 7.21.
The sequence MKKRLIAPMLLSAASLAFFAMFIIGSTAQAAAY registered an AmyQ secretion efficiency of 4.67.
Next, MKKTIMSFVAVAALSTTAFKRRHASAKEI: 7.04; MKKWMASTSFSMGLFLAAAVLLCLMVPQQIQGASS: 5.01.
Next, MKKTIMSFVAVAALSTTAFGAHVSAKEI: 2.83; MKKRLIGFLVLVPALIMSGITLAEANKK: 7.38; MKLAKRVSALTPSTTLAITAKKKEL: 7.78.
With MLKKKWMVGLLAGCLAAGGFSYNEFATEN, the AmyQ secretion efficiency is 6.42.
As to MKKAFLVFLSVVLVTTVFLVKQQESVHQAKQL, the AmyQ secretion efficiency came out at 6.34.
For the sequence MKLAKRVSALTPSTTLAITAKIKEL, the AmyQ secretion efficiency was 7.25.
As for MPIKKKCLAVTLVFGSMSFPTLTNSGGFKE, the AmyQ secretion efficiency came to 5.38.
In turn, MRRYRKVLTMCFLGLILFVPTALADNS registered an AmyQ secretion efficiency of 1.79.
With MTMLRKIIGWILLLCIIPLFAFTVIASDKEV, the AmyQ secretion efficiency was determined as 7.16.
In the case of MNKLKRLSMLTVMIASVFIFSSHALMAQY, the AmyQ secretion efficiency was found to be 7.08.
Sequence MKKAFLVFLSVVLVTTVFLVKQQESVSGAQAKQL had an AmyQ secretion efficiency of 4.03.
Consider MKLAKRVSALTPSTTLAITRKAKEL, for which the AmyQ secretion efficiency was 7.25.
MKIRKILLSSALSFGMLEEDDPALAAGT came in with an AmyQ secretion efficiency of 2.69.
The figure for MKSKWMSGLLLVAVGFSFTQVMVHPGET is 7.16.
On to MSKWLIIAVSLAIAIVLFMYTKGEAKAAGM, for which the AmyQ secretion efficiency worked out at 7.49.
Next, MRKKCSVCRRKKVLLLSCLSGKSAYAATS: 7.48; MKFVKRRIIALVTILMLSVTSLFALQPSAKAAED: 2.86; MKKSQYFIVFICFFVLFSVHPIAGAAADS: 3.96.
MKNMSCKYQQGVTLFFSFLTIGPLAHAQNS: the AmyQ secretion efficiency was 6.89.
The figure for MRKNRILALFVLSLGLLSFMVTPVSAKRK is 2.57; for MRPVFPLKKRRVLFLSCFFGARQTEASASKR it is 7.34; for MKRFSTAYLLLGILCSAAVFLIGAPSRALGARR it is 7.6.
MKRLLVSLRVWMVFLMNWVTPDRKTDAAAVY had an AmyQ secretion efficiency of 6.85.
MNLLFNLSMLTVMIASVFIFSSHALAAQY came in with an AmyQ secretion efficiency of 2.94.
The figure for MKKVMLATALFLGLTPAGANARKR is 6.61; for MPYLKRVLLLLVTGLFMSLFAVTATASYQTG it is 1.77; for MKRLCLWFTVFSLFLVLLPGKALGARR it is 2.37.
Next, MLTKRLLLTIYIMLLGLIAWFPGAAQAEEK: 2.22.
Next, MRNLTKTSLLLAGLCTAARRKKKKHASAEES: 7.09.
In turn, MPIKKKVMMCLAVTLVFGSMSFPTLTNSGEFKE came in with an AmyQ secretion efficiency of 5.74.
Next, MKRVCLTALLSVLLVAGSVPFHAEAKKP: 2.1; MKTKTLFIFSAILTLSIFAPNETFARRR: 2.28; MNKLKRLSMLTVMIASVFIFSASFFTSHALAAQY: 2.06.
The figure for MKRLCLWFTVFSPGKALGAVD is 7.52.
The figure for MKKRLIAPMSGYGASLAFFAMSGSAQAAAY is 7.43; for MLGMGWMVGLLAGCLAAGGFSYNAFATEN it is 6.54; for MMIKQCKRCKKRKVFGTTAAHAEET it is 7.72.
For MKRLLVSLRVWMVFLMNWVTPDRKTTPSGAAAAVY, the AmyQ secretion efficiency stood at 6.68.
Regarding MPYLKRVLLLLVTGLFMSLFAVTATASAEDD, the AmyQ secretion efficiency is 3.73.
Next, MKRYYVRMTLPLLIVCLAFSSFSASARAASE: 2.74; MKLSVKIAGVLTVAAAAMRKKMYATAKGN: 7.43.
Next, MKSRTIWTIILGALLVCCKKKKRTLTKSQAGASSS: 6.52; MKRKRLFIFSAILTLSIFAPNETFAQTA: 1.57.
MRKNRILALFVLSLGLLSFMVTPVSAASK: the AmyQ secretion efficiency was 2.04 and 2.05 and 2.92.
With MKRLLVSLRVWMVFLMNWVTPDRKTAAYAVY, the AmyQ secretion efficiency was 7.68.
MLKKIALTLCPAIVGSLLFFTAPASKHVS came in with an AmyQ secretion efficiency of 5.12.
The figure for MKKAAAVLLSLGLVFGFSYGAGHVAEADDD is 5.61.
Next, MTKKAWFLPLVCVLLIVSWLASAASASAQTT: 2.08; MTKKAWFLPLVCVLLISGWLAPAASVSAQTT: 2.17; MGCTMMLLFSAIASFPVSAQAKDQ: 6.4.
The figure for MKKRKQRPRLLSAASLAFFAMSGSAQAAAY is 6.55; for MPIKKKVMMCKRVTLVFGSMSFPTLTNSGGFKE it is 6.57; for MKVLLSALLLLLFAEASGKKL it is 6.56.
Turning to MMLAKRVSALTPSTTLAITAKAKEL, the AmyQ secretion efficiency is 7.47.
The figure for MKFVKRRGSRGQTTSTLSVTSLFALQPSAKAAEH is 5.84; for MKKWMITIAMLILAGIALFVFISPNKSHKT it is 5.8.
For the sequence MKKKQVMLALTAAAGLGLTALHSAPAAKEAPL, the AmyQ secretion efficiency turned out to be 6.66.
Next, MKRLLVSLRVWMVFLMNWVTPDRKTAAADED: 6.67; MRKAVFVIMISFLIATVNVNTAHAAID: 3.36.
For the sequence MLKKKWMVKRLAGCLAAGGFSYNAFATEN, the AmyQ secretion efficiency is 7.03.
Next, MRMLWRSLALCGLALTLAPCAQLAEP: 6.58.
Next, MKKCKRRKTTIALILSLSTNAFAKNT: 7.38; MRFTKVVGFLSVLGLAAVFPLTAQAAKR: 5.46; MSMMLRRNFKRFIAAFLVLALMISLVPADVLAKST: 1.81.
